Source: publication PMC9049607

Columns and labels:
Assay in all cases: purified protein
purified protein [1] = substrate: NC(=O)C1=CN([C@@H]2O[C@H](COP(=O)(O)OP(=O)(O)OC[C@H]3O[C@@H](n4cnc5c(N)ncnc54)[C@H](O)[C@@H]3O)[C@@H](O)[C@H]2O)C=CC1; settings: 5 mM (E/Z)-citral, 100 mM PBS pH 8.0, 30°C, varied: cofactor
purified protein [2] = substrate: CC(C)=CCC/C(C)=C/C=O; settings: 0.2 mM NADH, 100 mM PBS pH 8.0, 30°C
purified protein [3] = substrate: CC(C)=CCC/C(C)=C\C=O; settings: 0.2 mM NADH, 100 mM PBS pH 8.0, 30°C

B1: OYE2p (Saccharomyces cerevisiae S288C) (protein)
chain: PFVKDFKPQALGDTNLFKPIKIGNNELLHRAVIPPLTRMRAQHPGNIPNRDWAVEYYAQRAQRPGTLIITEGTFPSPQSGGYDNAPGIWSEEQIKEWTKIFKAIHENKSFAWVQLWVLGWAAFPDTLARDGLRYDSASDNVYMNAEQEEKAKKANNPQHSITKDEIKQYVKEYVQAAKNSIAAGADGVEIHSANGYLLNQFLDPHSNNRTDEYGGSIENRARFTLEVVDAVVDAIGPEKVGLRLSPYGVFNSMSGGAETGIVAQYAYVLGELERRAKAGKRLAFVHLVEPRVTNPFLTEGEGEYNGGSNKFAYSIWKGPIIRAGNFALHPEVVREEVKDPRTLIGYGRFFISNPDLVDRLEKGLPLNKYDRDTFYKMSAEGYIDYPTYEEALKLGWDKN
Which Km (purified protein [1]) does the source give for B1 here?
Its Km is 14 ± 4 µM.

What about the Km (purified protein [2]) of the same protein?
Its Km is 120 ± 25 µM.

And the kcat (purified protein [2])?
Its kcat is 0.213 ± 0.008 s⁻¹.

What about the kcat/Km (purified protein [2]) of the same protein?
Its kcat/Km is 1780 ± 305 M⁻¹ s⁻¹.

What about the Km (purified protein [3]) of the same protein?
Its Km is 310 ± 47 µM.

What about the kcat (purified protein [3]) of the same protein?
Its kcat is 0.13 ± 0.008 s⁻¹.

And the kcat/Km (purified protein [3])?
The kcat/Km was 421 ± 39 M⁻¹ s⁻¹.
